Assay results: PMC10449523, “A polysaccharide utilization locus from Chitinophaga pinensis simultaneously targets chitin and β-glucans found in fungal cell walls” (mSphere, 2023)

What was measured:
Assay in all cases: fluorescent release of 4-methylumbelliferone (chitinase assay kit CS1030)
Type in all cases: biochemical, Chitinophaga pinensis
Conditions in all cases: kit manufacturer's conditions
[1] = substrate: CC(=O)N[C@H]1[C@H](Oc2ccc3c(C)cc(=O)oc3c2)O[C@H](CO)[C@@H](O[C@@H]2O[C@H](CO)[C@@H](O[C@@H]3O[C@H](CO)[C@@H](O)[C@H](O)[C@H]3NC(C)=O)[C@H](O)[C@H]2NC(C)=O)[C@@H]1O
Excerpt: fluorescent release of 4-methylumbelliferone (chitinase assay kit CS1030) on […]

[2] = substrate: CC(=O)N[C@H]1[C@H](Oc2ccc3c(C)cc(=O)oc3c2)O[C@H](CO)[C@@H](O[C@@H]2O[C@H](CO)[C@@H](O[C@@H]3O[C@H](CO)[C@@H](O)[C@H](O)[C@H]3NC(C)=O)[C@H](O)[C@H]2NC(C)=O)[C@@H]1O; remark: listed apart in the source
Excerpt: fluorescent release of 4-methylumbelliferone (chitinase assay kit CS1030) on CpChiAC-CBM5

[3] = substrate: CC(=O)N[C@H]1[C@H](Oc2ccc3c(C)cc(=O)oc3c2)O[C@H](CO)[C@@H](O[C@@H]2O[C@H](CO)[C@@H](O[C@@H]3O[C@H](CO)[C@@H](O)[C@H](O)[C@H]3NC(C)=O)[C@H](O)[C@H]2NC(C)=O)[C@@H]1O; remark: listed apart in the source
Excerpt: fluorescent release of 4-methylumbelliferone (chitinase assay kit CS1030) on CpChiB

[4] = substrate: CC(=O)N[C@H]1[C@H](Oc2ccc3c(C)cc(=O)oc3c2)O[C@H](CO)[C@@H](O[C@@H]2O[C@H](CO)[C@@H](O[C@@H]3O[C@H](CO)[C@@H](O)[C@H](O)[C@H]3NC(C)=O)[C@H](O)[C@H]2NC(C)=O)[C@@H]1O; remark: listed apart in the source
Excerpt: fluorescent release of 4-methylumbelliferone (chitinase assay kit CS1030) on CpChiB-CBM6

B1: CpChiAC (Chitinophaga pinensis DSM 2588) (protein)
chain: KVVVGYWQNWNLASAPYIRLRDVDSRYNVIEVAFGTTSSDLSTVNFTPEGTTVADFKADIATLQAQGRKVLLSLGGETGTLVINTEANKQAFISSMKNLLDSYNFDGFDLDIEGGTSLQLNNGDNNFMAPTTPKVVNLIAAAKEIISYRKAQGKNCLLTMAPETYYVQTAYGATYSPLVGAYLPIIYGLRNELSWIQPQLYNTGSVMGLDNKVYNSTTADFIVSMTEMLLQGFPVSGTSQTFPALREDQVAFGLPAAPGAAGSGYTAPAEVKKALNYLTKGQSYGGTYVIRKAAGYPGLRGIMTWSVNWDKVNNSEFAANYYPYFFGT
notes: C-terminal His6 tag (pET21a), E. coli BL21(DE3)
Work on B1 yielded a Km [1] of 220 ± 3 µM, a kcat [1] of 2.6587 ± 0.035 s⁻¹ and a kcat/Km [1] of 11800 M⁻¹ s⁻¹.

B2: CpChiAC-CBM5 (Chitinophaga pinensis DSM 2588) (protein)
chain: KVVVGYWQNWNLASAPYIRLRDVDSRYNVIEVAFGTTSSDLSTVNFTPEGTTVADFKADIATLQAQGRKVLLSLGGETGTLVINTEANKQAFISSMKNLLDSYNFDGFDLDIEGGTSLQLNNGDNNFMAPTTPKVVNLIAAAKEIISYRKAQGKNCLLTMAPETYYVQTAYGATYSPLVGAYLPIIYGLRNELSWIQPQLYNTGSVMGLDNKVYNSTTADFIVSMTEMLLQGFPVSGTSQTFPALREDQVAFGLPAAPGAAGSGYTAPAEVKKALNYLTKGQSYGGTYVIRKAAGYPGLRGIMTWSVNWDKVNNSEFAANYYPYFFGTTPGNQSPVVSITSPASGASFTAPASITITASASDADGSIAKVEFYNGATKLGQATAAPYSYTWTNVAAATYSLTAVATDNAGAVTTSAAVSVTVNGTGGNTCDGIAAWSATIAYNGSQQVVYNGKIYTAKWWTQGDQPDTHSGADQVWAYVRDCGGSNPGNQAPTVSITSPSAGASFSAPATVTIQATAADADGTIAKVEFYNGNTKLGEVTASPYSYTWGNVAAGAYSITAVATDNGSKSTTSAAVAIQVGSGNTGNCAGVAAYEPFPKVYNQGDKVVYNGVLYESQSNGLYNVTPGTADWWWKPLGACGAAARVAVVSPEPDGVNADSKLVVFPNPLTGTVLKVQINAAQGEKVLIELWSTNGNAILRKQIVAGAKGQQTVDLDVSQVPAGSWILKTSNQQSGRKSAAKVIRL
notes: as for B1
Work on B2 yielded a Km [2] of 290 ± 0.2 µM, a kcat [2] of 3.0285 ± 0.0383 s⁻¹ and a kcat/Km [2] of 10600 M⁻¹ s⁻¹.

B3: CpChiB (Chitinophaga pinensis DSM 2588) (protein)
chain: QFKVVGYMPSWSGSVSAIQYSKLTHINYAFALPTSTGGLQPIENPSKLSSLVSSGHANGVKVLIAIGGWNNGDDGAFESLAANATYRTNFVNNVMNFVNQYGLDGVDMDWEYPDAGASANNYLALMQQLSTALHNNGKLLTAAVVGTGGASILNGVFNVVDFLNLMAYDYNNYEHSTYTYASQSLSYWVGRGLPASKAILGVPFYARPSWNSYATLLANGANPNSDYFGSDYYNGLPTIRSKTNLAFDQGGGIMMWELSQDATGANSLLSAIYQVKLDR
notes: as for B1
Protein B3 has a Km [3] of 240 ± 10 µM, a kcat [3] of 2.199 ± 0.148 s⁻¹ and a kcat/Km [3] of 8850 M⁻¹ s⁻¹.

B4: CpChiB-CBM6 (Chitinophaga pinensis DSM 2588) (protein)
chain: QFKVVGYMPSWSGSVSAIQYSKLTHINYAFALPTSTGGLQPIENPSKLSSLVSSGHANGVKVLIAIGGWNNGDDGAFESLAANATYRTNFVNNVMNFVNQYGLDGVDMDWEYPDAGASANNYLALMQQLSTALHNNGKLLTAAVVGTGGASILNGVFNVVDFLNLMAYDYNNYEHSTYTYASQSLSYWVGRGLPASKAILGVPFYARPSWNSYATLLANGANPNSDYFGSDYYNGLPTIRSKTNLAFDQGGGIMMWELSQDATGANSLLSAIYQVKLDRTGTNPPTGSTLIQAENYTSMSGVQVEATTDAGGGSNVGYIETGDWLAYANINFPTSGAYKVEYRVASQSTGGQLSLDLNSGAIVLGYLNVPVTGGWQTWTTISHNVNVTAGTYSLGVYAQSGGWNINWIRITKVAS
notes: as for B1
B4 gave a Km [4] of 120 ± 3 µM, a kcat [4] of 1.005 ± 0.0533 s⁻¹ and a kcat/Km [4] of 8150 M⁻¹ s⁻¹.
